The data set “SEC” deals with the molecule itself. The data set can be described thus: SEC. A general note: SEC sorts molecules by how far they enter the pores of the column.
Data set [1] deals with T1, σ^HrdB (purified protein, 55.9 kDa) (S. coelicolor, UniProt P18183 1-511).
T1 sequence: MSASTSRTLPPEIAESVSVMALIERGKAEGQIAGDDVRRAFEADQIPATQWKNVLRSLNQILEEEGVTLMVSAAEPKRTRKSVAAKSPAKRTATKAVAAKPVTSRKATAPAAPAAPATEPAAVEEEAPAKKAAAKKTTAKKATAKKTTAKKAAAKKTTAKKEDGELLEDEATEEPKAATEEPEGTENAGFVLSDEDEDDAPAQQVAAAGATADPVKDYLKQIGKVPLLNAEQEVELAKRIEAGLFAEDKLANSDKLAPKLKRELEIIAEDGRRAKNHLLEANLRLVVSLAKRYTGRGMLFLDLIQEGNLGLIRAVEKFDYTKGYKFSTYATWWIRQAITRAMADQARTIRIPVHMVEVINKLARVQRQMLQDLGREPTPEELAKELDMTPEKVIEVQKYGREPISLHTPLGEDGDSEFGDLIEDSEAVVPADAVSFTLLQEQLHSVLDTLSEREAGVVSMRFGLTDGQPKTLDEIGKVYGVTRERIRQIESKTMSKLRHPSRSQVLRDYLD
The data set can be described thus: SEC.

Data set [2] addresses T2, His6-σ^HrdB σ2–σ4 fragment (amino acids 211–511) (S. coelicolor, UniProt P18183 211-511).
T2 sequence: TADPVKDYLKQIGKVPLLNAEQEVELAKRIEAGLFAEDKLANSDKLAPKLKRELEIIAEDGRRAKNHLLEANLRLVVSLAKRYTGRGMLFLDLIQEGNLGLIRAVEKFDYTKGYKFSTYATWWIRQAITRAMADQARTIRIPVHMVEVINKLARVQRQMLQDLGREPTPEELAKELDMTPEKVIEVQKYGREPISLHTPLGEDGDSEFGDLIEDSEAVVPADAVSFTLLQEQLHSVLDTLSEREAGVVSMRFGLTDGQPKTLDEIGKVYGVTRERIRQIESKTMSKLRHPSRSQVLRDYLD
Nature of the data set: […].

Data set [3] has as its target T3, His6-σ^HrdB σ2 fragment (amino acids 211–347) (S. coelicolor, UniProt P18183 211-347).
T3 sequence: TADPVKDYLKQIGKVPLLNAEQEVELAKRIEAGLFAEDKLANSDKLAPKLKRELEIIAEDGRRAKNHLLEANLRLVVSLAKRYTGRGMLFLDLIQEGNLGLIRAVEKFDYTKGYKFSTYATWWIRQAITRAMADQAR
The data set can be described thus: […].

B1: RbpA^Sc (native, untagged purified protein, 14.1 kDa) (natural protein)
chain: MSERALRGTRLVVTSYETDRGIDLAPRQAVEYACEKGHRFEMPFSVEAEIPPEWECKVCGAQALLVDGDGPEEKKAKPARTHWDMLMERRTREELEEVLEERLAVLRSGAMNIAVHPRDSRKSA
A word on the stoichiometry N: it is a count of units in the complex or per binding partner. As for B1, the “stoichiometry N” value in the data set “SEC” was determined as 2. For the same molecule, the binding result in data set [1], in data set [2] and in data set [3] was “binds” in each case.

Values taken from paper PMC3675491 (Nucleic Acids Research, 2013).
